From patent US20250276090A1, “Methods and Compositions for Genetically Modifying a Cell” (Intellia Therapeutics, Inc., priority 2022, published 2025)
Strand notation (5' to 3'): a small letter for the sugar, then the base; units joined by * are phosphorothioate-linked, units joined directly phosphodiester-linked; [ ] holds rarer units or linkages, { } end groups; capitals alone tell only the bases. m = 2'-O-methyl; r = 2'-OH (RNA)

Legend:
Type in all cases: cell-based, human
CIITA locus = assay: NGS percent editing with SpyCas9 and Nme2 base editor, CIITA (Example 9); details: CIITA BE guide, Day 7
Source text: (§1) Genomic DNA was extracted using QuickExtract™ DNA Extraction Solution (Lucigen, Cat. No. QE09050) according to manufacturer's protocol.
(§2) To quantitatively determine the efficiency of editing at the target location in the genome, deep sequencing was utilized to identify the presence of insertions, deletions, and substitution introduced by gene editing. PCR primers were designed around the target site within the gene of interest (e.g., HLA-A) and the genomic area of interest was amplified. Primer sequence design was done as is standard in the field.
(§3) Additional PCR was performed according to the manufacturer's protocols (Illumina) to add chemistry for sequencing. The amplicons were sequenced on an Illumina MiSeq instrument. The reads were aligned to the human reference genome (e.g., hg38) after eliminating those having low quality scores. Reads that overlapped the target region of interest were re-aligned to the local genome sequence to improve the alignment. Then the number of wild type reads versus the number of reads which contain C-to-T mutations, C-to-A/G mutations or indels was calculated. Insertions and deletions were scored in a 20 bp region centered on the predicted Cas9 cleavage site. Indel percentage is defined as the total number of sequencing reads with one or more base inserted or deleted within the 20 bp scoring region divided by the total number of sequencing reads, including wild type. C-to-T mutations or C-to-A/G mutations were scored in a 40 bp region including 10 bp upstream and 10 bp downstream of the 20 bp sgRNA target sequence. The C-to-T editing percentage is defined as the total number of sequencing reads with either one or more C-to-T mutations within the 40 bp region divided by the total number of sequencing reads, including wild type. The percentage of C-to-A/G mutations are calculated similarly.
(§4) Isolated, cryopreserved T cells were thawed in a water bath and plated at a density of 1×10^6 cells/mL in TCAM media containing CTS OpTmizer T Cell Expansion SFM and T Cell Expansion Supplement (ThermoFisher Cat. A1048501), 1× Penicillin-Streptomycin, 1× Glutamax, 10 mM HEPES, 200 U/mL recombinant human interleukin-2 (Peprotech, Cat. 200-02), 5 ng/mL recombinant human interleukin 7 (Peprotech, Cat. 200-07), and 5 ng/mL recombinant human interleukin 15 (Peprotech, Cat. 200-15) and 2.5% human AB serum (GeminiBio, Cat. 100-512). Technical replicates were prepared using isolated T cells from multiple donors. Data shown is from a selected donor.
(§5) LNPs were generally prepared as described in Example 1. Lipid nanoparticles in this example were prepared with molar ratios of 35 Lipid A: 47.5 cholesterol: 15 DSPC: 2.5 PEG2k-DMG. LNPs were made with a lipid amine to RNA phosphate (N:P) molar ratio of about 6. LNPs were formulated with a single RNA species or coformulated with multiple RNA species as described in Table 32. LNPs were delivered to T cells in TCAM media containing ApoE3 (Peprotech, Cat. 350-02) as described in Table 32.
(§6) On Day 1 (e.g., about 24 hours post thaw) cells were harvested and activated with TransAct™ (1:100 dilution, Miltenyi Biotec). LNPs were applied at the doses listed in Table 32 on Day 3 along with 0.5 uM of Compound 1.
(§7) Beginning on Day 4, cells were split and media refreshed regularly. On Day 7, a portion of cells were harvested for sequencing analysis at TRAC, TRBC1, TRBC2 and CIITA loci. NGS analysis was performed as described in Example 1. Table 33 and FIG. 15 show mean percent editing for these cells.

TRBC1 locus = assay: NGS percent editing with SpyCas9 and Nme2 base editor, TRBC1 (Example 9); details: TRBC1 BE guide, Day 7
Source text: as §1, §2, §3, §4, §5, §6, §7

AAVS1 = assay: GFP insertion at AAVS1 in T cells with SpyCas9 RNP and gapped AAV templates, flow cytometry (Example 6); details: Template OG, day 7 post-editing
Description: AAVS1 guide RNAs were designed and screened to identify insertion SpyCas9 guides using a series of gapped AAV GFP templates (A, B, C, D, OG) each designed for a subset of the guide RNAs. Insertion efficacy in T cells was examined by assessing GFP expression by flow cytometry. The percentage of T cells positive for green fluorescent protein (“% GFP+”) was assayed by flow cytometry, following AAVS1 editing by mRNA and AAV delivery.
Healthy human donor apheresis was obtained commercially (Hemacare) from two donors (#110042863 and #110040377) and cells were washed and resuspended in MACS Buffer containing 2 mM EDTA and 0.5% Fetal Bovine Serum (FBS) in PBS. Cells were washed twice by centrifugation followed by CD3 negative selection using Easy Sep Human T Cell Isolation Kit (Stemcell, Cat. 100-0695) and separated using Easy Sep Magnets (Stemcell, Cat.18000). T cells were aliquoted and cryopreserved for future use in Cryostor® CS10 (StemCell Technologies Cat. 07930).
AAVS1 guide RNAs were assessed for insertion efficacy in T cells by assessing GFP expression by flow cytometry. The percentage of T cells positive for green fluorescent protein (“% GFP+”) was assayed by flow cytometry, following AAVS1 editing by mRNA and AAV delivery.
AAVS1 targeting sgRNAs corresponding to the flanking homology regions of Gap Templates A, B, C, D, & OG (SEQ ID NOs: 299-303) were removed from their storage plates and denatured for 2 minutes at 95° C. before cooling at room temperature for 10 minutes. RNP mixture of 20 μM sgRNA and 10 μM Cas9-NLS protein (SEQ ID NO: 296) was prepared and incubated at 25° C. for 10 minutes. 2.5 μL of RNP mixture was combined with 250,000 cells in […] P3 electroporation Buffer (Lonza). 22 μL of RNP/cell mix was transferred to the corresponding wells of a Lonza shuttle 96-well electroporation plate. Cells were electroporated in duplicate with the manufacturer's pulse code. T cell media described above without any cytokines was added to the cells immediately post electroporation. T cells were rested for 10 minutes at 37° C. Gap Template AAVs were prepared in 48 well plates (Corning, Cat.353078)) with T cell media described above containing 2× cytokines, 400 U/mL recombinant human interleukin-2 (Peprotech, Cat. 200-02), 10 ng/ml recombinant human interleukin 7 (Peprotech, Cat. 200-07), and 10 ng/ml recombinant human interleukin 15 (Peprotech, Cat. 200-15) cytokines. The multiplicity of infection (MOI) of AAVs was 3×10^^5. AAVs were added to the T cells within 15 minutes post electroporation and incubated for 48 hours at 37° C. AAV-6 vectors encoded AAVS1 Template A, B, C, D or OG. Two days post-electroporation, cells were split 1:2 in 48 well plates replenished with T cell media with 1× cytokines as described above. sgRNAs were tested each with AAV constructs and gapped template.
On day 7 post-editing, cells were phenotyped by flow cytometry to determine GFP expression to confirm integration of AAV at their GAP template site. Briefly, T cells were washed in FACS buffer containing 2 mM EDTA (Invitrogen, Cat.15575020) and 1% FBS in PBS followed by re-suspending in FACS buffer containing 1:10,000 dilution of DAPI (Biolegend, Cat.422801) nuclear stain. Cells were then processed on a Cytoflex flow cytometer (Beckman Coulter) and analyzed using the FlowJo software package. T cells were gated based on size, shape, viability, and GFP expression. Values that were not determined by the flow cytometer were denoted as “ND”. Table 18 and FIGS. 8A-8B show mean percentage of T cells positive for GFP expression.

B1: G026584 (nucleic acid)
guide: UCAAAGUACCCUACAGGAGGACCAGUUGUAGCUCCCUGAAACCGUUGCUACAAUAAGGCCGUCGAAAGAUGUGCCGCAACGCUCUGCCUUCUGGCAUCGUU
modifications: chemical modifications, further chemistry not given here
B1 was tested, and the “Mean percent editing, C to A/G” value (CIITA locus; BE mRNA 0.5 ug/mL) was 1.2%, the “Mean percent editing, C to T” value (CIITA locus; BE mRNA 0.5 ug/mL) was 91.8% and the “Mean percent editing, Indels” value (CIITA locus; BE mRNA 0.5 ug/mL) was 0.9%. The “Mean percent editing, C to A/G” value (CIITA locus; BE mRNA 1.0 ug/mL) was 1.4%, the “Mean percent editing, C to T” value (CIITA locus; BE mRNA 1.0 ug/mL) was 91.6% and the “Mean percent editing, Indels” value (CIITA locus; BE mRNA 1.0 ug/mL) was 0.6%.

B2: G028986: TRBC sgRNA for Nme2 Base Editor (nucleic acid)
guide: GUGUCCUACCAGCAAGGGGUCCUGGUUGUAGCUCCCUGAAACCGUUGCUACAAUAAGGCCGUCGAAAGAUGUGCCGCAACGCUCUGCCUUCUGGCAUCGUU
modifications: chemical modifications; listed as RNA; modified_base 1: mod_base = OTHER; note = 2'-O-methyl modified nucleotide with phosphorothioate linkage; modified_base 2: mod_base = OTHER; modified_base 3: mod_base = OTHE
notes: TRBC sgRNA for Nme2 Base Editor
B2 was tested, and the “Mean percent editing, C to A/G” value (TRBC1 locus; BE mRNA 0.5 ug/mL) was 1.0%, the “Mean percent editing, C to T” value (TRBC1 locus; BE mRNA 0.5 ug/mL) was 94.4% and the “Mean percent editing, Indels” value (TRBC1 locus; BE mRNA 0.5 ug/mL) was 0.3%. For the same molecule, the “Mean percent editing, C to A/G” value (TRBC1 locus; BE mRNA 1.0 ug/mL) was 0.9%, the “Mean percent editing, C to T” value (TRBC1 locus; BE mRNA 1.0 ug/mL) was 93.3% and the “Mean percent editing, Indels” value (TRBC1 locus; BE mRNA 1.0 ug/mL) was 1.0%.

B3: G013543: AAVS1 SpyCas9 guide RNA, guide sequence SEQ ID NO: 257, chr19:55115755-55115775 (nucleic acid)
guide: mU*mG*mU*rCrCrCrUrArGrUrGrGrCrCrCrCrArCrUrGrGrUrUrUrUrArGrAmGmCmUmAmGmAmAmAmUmAmGmCrArArGrUrUrArArArArUrArArGrGrCrUrArGrUrCrCrGrUrUrArUrCrAmAmCmUmUmGmAmAmAmAmAmGmUmGmGmCmAmCmCmGmAmGmUmCmGmGmUmGmCmU*mU*mU*mU
B3 was tested, and the “Mean percentage of T cells positive for GFP expression” value (AAVS1; Donor 1) was 65.25% and the “Mean percentage of T cells positive for GFP expression” value (AAVS1; Donor 2) was 64.40%.
